Several values for one entry are separate records, joined by “and”; a condition that tells them apart may be missing. Identical values can stand only once. One block for each molecule: values may come before it.
B1: noncollagenous C-terminal domain (NC1) of the collagen IV α5 chain, recombinant (domain or fragment, human)
chain: SVAHGFLITRHSQTTDAPQCPQGTLQVYEGFSLLYVQGNKRAHGQDLGTAGSCLRRFSTMPFMFCNINNVCNFASRNDYSYWLSTPEPMPMSMQPLKGQSIQPFISRCAVCEAPAVVIAVHSQTIQIPHCPQGWDSLWIGYSFMMHTSAGAEGSGQALASPGSCLEEFRSAPFIECHGRGTCNYYANSYSFWLATVDVSDMFSKPQSETLKAGDLRTRISRCQVCMKRT
notes: collagen IV α5 chain, human, NC1 domain; The construct has an N-terminal BM40 secretion peptide followed by the FLAG tag; also called α5NC1; α5(IV)NC1
B2: noncollagenous C-terminal domain (NC1) of the collagen IV α1 chain, recombinant (domain or fragment, human)
chain: SVDHGFLVTRHSQTIDDPQCPSGTKILYHGYSLLYVQGNERAHGQDLGTAGSCLRKFSTMPFLFCNINNVCNFASRNDYSYWLSTPEPMPMSMAPITGENIRPFISRCAVCEAPAMVMAVHSQTIQIPPCPSGWSSLWIGYSFVMHTSAGAEGSGQALASPGSCLEEFRSAPFIECHGRGTCNYYANAYSFWLATIERSEMFKKPTPSTLKAGELRTHVSRCQVCMRRT
notes: collagen IV α1 chain, human, NC1 domain (about 230 C-terminal residues); The construct has an N-terminal BM40 secretion peptide followed by the FLAG tag; also called α1NC1; α1(IV)NC1
B3: noncollagenous C-terminal domain (NC1) of the collagen IV α2 chain, recombinant, from insect cells (domain or fragment, human)
chain: SVSIGYLLVKHSQTDQEPMCPVGMNKLWSGYSLLYFEGQEKAHNQDLGLAGSCLARFSTMPFLYCNPGDVCYYASRNDKSYWLSTTAPLPMMPVAEDEIKPYISRCSVCEAPAIAIAVHSQDVSIPHCPAGWRSLWIGYSFLMHTAAGDEGGGQSLVSPGSCLEDFRATPFIECNGGRGTCHYYANKYSFWLTTIPEQSFQGSPSADTLKAGLIRTHISRCQVCMKNL
notes: collagen IV α2 chain, human, NC1 domain; The construct has an N-terminal BM40 secretion peptide followed by the FLAG tag; Used for the α121NC1 crystals (expressed in insect cells); also called α2NC1; α2(IV)NC1
B4: noncollagenous C-terminal domain (NC1) of the collagen IV α2 chain, recombinant, from HEK293 cells (domain or fragment, human)
chain: B3 chain
notes: collagen IV α2 chain, human, NC1 domain; N-terminally FLAG-tagged fusion protein; Used for the α2NC1 crystals; also called α2NC1; α2NC1_(homo); source: HEK293 cells, purified as described elsewhere (Sado et al., 1998)

Tests used:
[1] = molecular target: noncollagenous C-terminal domain (NC1) of the collagen IV α3 chain, recombinant (human) (UniProt Q01955); assay: SPR; Biacore T100; α3NC1 or α5NC1 amine-coupled to CM5 chip (~1000 RU); α3NC1 or α5NC1 flowed over; 25°C; 10 mM Tris-HCl pH 7.4, 0.15 M NaCl, 3 mM EDTA, 0.005% surfactant P20; self-association
[2] = molecular target: noncollagenous C-terminal domain (NC1) of the collagen IV α3 chain, recombinant (human) (UniProt Q01955); assay: crystal structure; α3NC1 alone; sitting drop, 21°C; protein in 50 mM Tris-HCl pH 7.4, 0.5 M NaCl; 16% PEG 3350, 0.2 M MgCl2, 0.1 M bis-tris propane pH 7.5
[3] = molecular target: noncollagenous C-terminal domain (NC1) of the collagen IV α4 chain, recombinant (human) (UniProt P53420); assay: crystal structure; α4NC1 alone; sitting drop, 21°C; protein in 50 mM Tris-HCl pH 7.4, 0.15 M NaCl; 6% PEG 3350, 0.2 M Na acetate, 0.1 M MES pH 6.5
[4] = molecular target: the molecule itself; assay: SPR; Biacore T100; α3NC1 or α5NC1 amine-coupled to CM5 chip (~1000 RU); α3NC1 or α5NC1 flowed over; 25°C; 10 mM Tris-HCl pH 7.4, 0.15 M NaCl, 3 mM EDTA, 0.005% surfactant P20; self-association
[5] = molecular target: the molecule itself; assay: crystal structure; crystals from a 1:1:1 mixture of α3NC1, α4NC1 and α5NC1; sitting drop, 21°C; protein in 50 mM Tris-HCl pH 7.4, 0.15 M NaCl; 20% PEG 8000, 0.2 M NaCl, 0.1 M CAPS pH 10.5
[6] = molecular target: the molecule itself; assay: crystal structure; α1NC1 alone; sitting drop, 21°C; protein in 50 mM Tris-HCl pH 7.4, 0.15 M NaCl; 1.4 M Li2SO4, 0.1 M MES pH 6.5
[7] = molecular target: B3; assay: crystal structure; 2:1 mixture (in terms of mass) of α1NC1 and α2NC1; sitting drop, 21°C; protein in 50 mM Tris-HCl pH 7.4, 0.15 M NaCl; 10% PEG 8000, 0.2 M Mg acetate; details: both partners purified
[8] = molecular target: B2; assay: as above; details: both partners purified
[9] = molecular target: the molecule itself; assay: crystal structure; α2NC1 (from HEK293 cells) alone; sitting drop, 21°C; protein in 50 mM Tris-HCl pH 7.4, 0.15 M NaCl; 22% polyvinylpyrrolidone K15, 0.1 M Na2SO4, 0.1 M MES pH 6.5

Kd [1]: 1.71 µM | stoichiometry N [2]: 6 subunits
Molecule: noncollagenous C-terminal domain (NC1) of the collagen IV α3 chain, recombinant (from UniProt Q01955 1441-1670) (domain or fragment)

stoichiometry N [3]: 12 subunits
Molecule: noncollagenous C-terminal domain (NC1) of the collagen IV α4 chain, recombinant (from UniProt P53420 1461-1690) (domain or fragment)

Molecule: B1
Kd [4]: 4.92 µM | stoichiometry N [5]: 6 subunits

Molecule: B2
stoichiometry N [6]: 6 subunits | stoichiometry N [7]: 2 α1NC1 per α2NC1

Molecule: B3
binding result [8]: binds

Molecule: B4
stoichiometry N [9]: 8 subunits and 4 subunits
